Test results: US6025158A, “Nucleic acids encoding humanized anti-IL-8 monoclonal antibodies” (Genentech, Inc., dated 2000)
Where two headings read alike, the source gives them in different places.

Columns and labels:
[1] = system: IL-8 induced human neutrophil chemotaxis; experiment: neutrophil chemotaxis induced by IL-8, Boyden chamber method; assay type: cell-based; settings: 1:10 ratio of IL-8 to mAb
Experimental: The ability of the anti-IL-8 antibodies to block neutrophil chemotaxis induced by IL-8 was tested as follows. Neutrophil chemotaxis induced by IL-8 was determined using a Boyden chamber method (Larsen, et al. Science 243:1464 (1989)). One hundred μl of human neutrophils (10^6 cells/ml) resuspended in RPMI containing 0.1% BSA were placed in the upper chamber and 29 μl of the IL-8 (20 nM) with or without monoclonal antibodies were placed in the lower chamber. Cells were incubated for 1 hr at 37° C. Neutrophils migrated into the lower chamber were stained with Wright's Giemsa stain and counted under the microscope (100×magnification). Approximately 10 different fields per experimental group were examined. Neutralizing monoclonal antibodies 5.12.14 and 4.1.3 blocked almost 70% of the neutrophil chemotactic activity of IL-8 at 1:10 ratio of IL-8 to mAb.

IL-8 [2] = target: T1, IL-8 (Homo sapiens, UniProt P10145); experiment: competitive binding ELISA (epitope comparison of biotinylated and unlabeled mAbs); design: is intended to mean (ser-IL-8)72 unless otherwise specified; ubiquitin (production fusion); made in house; settings: biotinylated mAb to unlabeled mAb 1:100
Experimental: To assess whether these monoclonal antibodies bound to the same epitopes, a competitive binding ELISA was performed. […] Thus, mAb 4.1.3 and mAb 5.2.3 bind to a different epitope(s) than the epitope recognized by monoclonal antibodies 12.3.9, 4.8 and 5.12.14.

[3] = target: T2, IL-8 binding to human neutrophils (Homo sapiens, UniProt P10145); experiment: receptor binding assay: 125I-IL-8 bound to human neutrophils in presence of mAbs; settings: 1:25 molar ratio of IL-8 to mAb
T2 construct: is intended to mean (ser-IL-8)72 unless otherwise specified; ubiquitin (production fusion); made in house
Experimental: Neutrophils were prepared by using Mono-Poly Resolving Medium (M-PRM) (Flow Lab. Inc., McLean, Va.). Briefly fresh, heparinized human blood was loaded onto M-PRM at a ratio of blood to medium, 3.5:3.0, and centrifuged at 300×g for 30 min at room temperature. Neutrophils enriched at the middle layer were collected and washed once in PBS. […] The receptor binding assay was done as follows. […] The mixture was then incubated with 100 μl of neutrophils (10^7 cells/ml) for 15 min at 37° C. […] The supernatant was removed by aspiration and the radioactivity associated with the pellet was counted in a gamma counter.

[4] = isoelectric focusing (IEF); assay type: physicochemical; settings: IEF pH 3-9
Experimental: The isoelectric focusing (IEF) pattern of each mAb was determined by applying purified antibodies on an IEF polyacrylamide gel (pH 3-9, Pharmacia) using the Fast gel system (Pharmacia, Piscataway, N.J.). The IEF gel was pretreated with pharmalyte containing 1% Triton X100 (Sigma, St. Louis, Mo.) for 10 min before loading the samples. The IEF pattern was visualized by silver staining according to the instructions from the manufacturer. All of the monoclonal antibodies had different IEF patterns, confirming that they originated from different clones.

[5] = system: human IL-8 mediated elastase release from human neutrophils; experiment: IL-8 mediated release of elastase by neutrophils (mAb); assay type: cell-based; settings: 1:1 ratio of IL-8 to mAb
Experimental: One of the antibodies, mAb 5.12.14, was further studied to determine whether it could block the IL-8 mediated release of elastase by neutrophils. Briefly, human neutrophils were resuspended in Hanks balanced salt solution (Gibco, Grand Island, N.Y.) containing 1.0% BSA, Fraction V (Sigma, St. Louis, Mo.), 2 mg/ml alpha-D-glucose (Sigma), 4.2 mM sodium bicarbonate (Sigma) and 0.01 M HEPES, pH 7.1 (JRH Bioscience, Lenexa, Kans.). A stock of cytochalasin B (Sigma) was prepared (5 mg/ml in dimethylsulfoxide (Sigma) and stored at 2-8° C. Cytochalasin B was added to the neutrophil preparation to produce a final concentration of 5 μg/ml, and incubated for 15 min at 37° C. Human IL-8 was incubated with mAb 5.12.14 (20 μl), or a negative control antibody, in 1 ml polypropylene tubes (DBM Scientific, San Fernando, Calif.) for 30 min at 37° C. The final assay concentrations of IL-8 were 50 and 500 nM. The monoclonal antibodies were diluted to produce the following ratios (IL-8:Mab): 1:50, 1:10, 1:2, 1:1, and 1:0.25. Cytochalasin B-treated neutrophils were added (100 μl/tube) and incubated for 2 hours at 25° C. The tubes were centrifuged (210×g, 2-8° C.) for 10 min, and supernatants were transferred to 96 well tissue culture plates (30 μl/well). […] Absorbance was measured at 405 nm (SLT 340 ATTC plate reader, SLT Lab Instruments, Austria).

IL-8 [6] = target: T1, IL-8; experiment: radioimmune precipitation test (RIP), capture of soluble 125I-IL-8; assay type: binding; design: is intended to mean (ser-IL-8)72 unless otherwise specified; ubiquitin (production fusion); made in house
Experimental: One hundred microliters of a predetermined concentration of goat anti-mouse Ig antisera (Pel-Freez, Rogers, Ark.) were added and the mixture was incubated at room temperature for 1 hr. Immune complexes were precipitated by the addition of 0.5 ml of 6% polyethylene glycol (M.W. 8000) kept at 4° C. After centrifugation at 2,000×g for 20 min at 4° C., the supernatant was removed by aspiration and the radioactivity remaining in the pellet was counted in a gamma counter. Percent specific binding was calculated as (precipitated cpm-background cpm)/(total cpm-background cpm).

[7] = system: neutrophils in bronchoalveolar lavage (BAL) fluid; experiment: neutrophils in bronchoalveolar lavage (BAL) fluid of animals infected with bacteria; assay type: in vivo; settings: infected with Streptococcus pneumoniae, Escherichia coli, or Pseudomonas aeruginosa; versus isotype control mouse IgG
Source text: FIG. 12 is a graph depicting the effect of anti-IL-8 monoclonal antibody treatment on the number of neutrophils in bronchoalveolar lavage (BAL) fluid in animals infected with Streptococcus pneumoniae, Escherichia coli, or Pseudomonas aeruginosa.

[8] = target: IL-8 binding to IL-8 receptors on human neutrophils (Homo sapiens, UniProt P10145); experiment: inhibition of 125I-IL-8 binding to human neutrophils (competition binding assay); settings: read-out: average IC50, inhibition of 125I-IL-8 binding to human neutrophils; characterization of 6G4V11N35A Fab and F(ab')2 (FIGS. 33, 38)
[9] = target: T3, recombinant human IL-8, (ser-IL-8)72 (human, UniProt P10145); experiment: inhibition of 125I-IL-8 binding to human neutrophils
[10] = target: T3, recombinant human IL-8, (ser-IL-8)72; experiment: 125I-IL-8 neutrophil competition; reference by Table 4: chimeric F(ab)
[11] = target: T3, recombinant human IL-8, (ser-IL-8)72; experiment: inhibition of 125I-IL-8 binding to human neutrophils; remark: listed apart in the source
rabbit IL-8 = target: T4, rabbit IL-8 (rabbit, UniProt P19874); experiment: cell-based or functional assay
T4 sequence: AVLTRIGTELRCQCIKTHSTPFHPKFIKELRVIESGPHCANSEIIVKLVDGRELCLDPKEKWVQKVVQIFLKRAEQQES

[12] = target: T3, recombinant human IL-8, (ser-IL-8)72
[13] = target: T3, recombinant human IL-8, (ser-IL-8)72; experiment: KinExA, equilibrium, human IL-8
Experimental: The beads were resuspended in assay buffer (0.1% bovine serum albumin in PBS) to a final volume of 30 ml.
The equilibrium constant (Kd) was calculated using the software provided by Sapidyne Instruments Inc.

[14] = target: T3, recombinant human IL-8, (ser-IL-8)72; remark: listed apart in the source
[15] = target: human monomeric IL-8 (human)

B1: 5.12.14: murine anti-human IL-8 monoclonal antibody, IgG2a, hybridoma ATCC HB 11553 (antibody, V domains shown)
VL: KASQNVGTNVAWYQQKPGQSPKALIYSSSYRYSGVPDRFTGSGSGTDFTLTISHVQSEDLADYFCQQYNIYPLTFGPGTKLELKRADAAPPTVSIFPPFE
VH: ASGFIFSSYGMSWVRQTPGKSLELVATINNNGDSTYYPDSVKGRFTISRDNAKNTLYLQMSSLKSEDTAMFYCARALISSATWFGYWGQGTLVTVSAAKTTAPSVYP
- block of neutrophil chemotactic activity of IL-8 [1]: ~70%
- inhibition of binding of biotinylated mAb (epitope) (IL-8 [2]): significantly inhibited by its homologous mAb but not by mAb 4.1.3
- inhibition of binding of IL-8 to human neutrophils [3]: greater than 85%
- pI [4]: 6.2-7.4
- block of IL-8 mediated release of elastase from neutrophils [5]: able to effectively block the release of elastase from neutrophils
- % Specific Binding to IL-8 (IL-8 [6]; 125I-IL-8, RIP): 98%
- ability to capture soluble 125I-IL-8 (IL-8 [6]; RIP): captured ^125 I-IL-8 very efficiently

B2: 6G4.2.5: murine anti-rabbit IL-8 monoclonal antibody, IgG2a, hybridoma ATCC HB 11722 (antibody, V domains shown)
VL: DIVMTQTPLSLPVSLGDQASISCRSSQSLVHGIGNTYLHWYLQKPGQSPKLLIYYKVSNRFSGVPDRFSDSGSGTDFTLRISRVEAEDLGLYFCSQSTHVPLTFGAGTKLELKR
VH: EIQLQQSGPELMKPGASVKISCKASGYSFSSHYMHWVKQSHGKSLEWIGYIDPSNGETTYNQKFKGKATLTVDTSSSTANVHLSSLTSDDSAVYFCAARGDYRYNGDWFFDVWGAGT
- number of neutrophils in BAL fluid [7]: significantly reduced the number of neutrophils present in the BAL fluid
- IC50 [8]: 5 nM

B3: humanized 6G425 F(ab)-1 (Fab, V domains shown)
VH: EVQLVESGGGLVQPGGSLRLSCAASGYSFSSHYMHWVRQAPGKGLEWVGYIDPSNGETTYNQKFKGRFTISRDNSKNTLYLQMNSLRAEDTAVYYCAARGDYRYNGDWFFDVWGQGT
VL: DIQMTQSPSSLSASVGDRVTITCRSSQSLVHGIGNTYLHWYQQKPGKAPKLLIYYKVSNRFSGVPSRFSGSGSGTDFTLTISSLQPEDFATYYCSQSTHVPLTFGQGTKVEIKR
- IC50 [9]: 63 nM
- fold reduction in binding affinity [10]: 5.5 fold
- IC50 [11]: 40 nM

B4: 6G4V11N35A Fab (Fab, V domains shown)
VH: EVQLVQSGGGLVQPGGSLRLSCAASGYSFSSHYMHWVRQAPGKGLEWVGYIDPSNGETTYNQKFKGRFTLSRDNSKNTAYLQMNSLRAEDTAVYYCARGDYRYNGDWFFDVWGQGTLVTVSS
VL: DIQMTQSPSSLSASVGDRVTITCRSSQSLVHGIGATYLHWYQQKPGKAPKLLIYKVSNRFSGVPSRFSGSGSGTDFTLTISSLQPEDFATYYCSQSTHVPLTFGQGTKVEIKR
- IC50, IL-8 mediated neutrophil chemotaxis (rabbit IL-8): 5 nM
- IC50, IL-8 mediated PMN chemotaxis [12]: 0.8 nM
- Kd [13]: ~0.114 nM
- IC50, human IL-8 mediated neutrophil chemotaxis [14]: 2.7 nM
- IC50, IL-8 mediated neutrophil chemotaxis [15]: 1 nM
